Assay results as given in PMC6476477, “A DNA aptamer reveals an allosteric site for inhibition in metallo-β-lactamases”.

Key:
Conditions in all cases: protein: recombinant; tags: none stated; hairpin (M-fold predicted)
[1] = target: T1, 5/B/6 metallo-beta-lactamase (MBL) wild type (Bacillus cereus 5/B/6, UniProt P14488 30-256); test: enzyme inhibition kinetics (uncompetitive KI'); cefuroxime substrate; NMR: 20 mM MOPS, 1 mM ZnSO4, pH 7, 25 C (buffer stated for assignment sample; titration at 25 C); kinetic assay buffer not in the material
T1 sequence: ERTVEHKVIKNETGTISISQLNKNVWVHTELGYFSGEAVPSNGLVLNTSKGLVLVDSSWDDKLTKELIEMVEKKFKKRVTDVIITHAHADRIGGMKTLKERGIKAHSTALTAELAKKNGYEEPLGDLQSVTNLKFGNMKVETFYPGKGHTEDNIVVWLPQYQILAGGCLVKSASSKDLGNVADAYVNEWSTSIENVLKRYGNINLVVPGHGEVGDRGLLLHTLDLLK

[2] = target: T1, 5/B/6 metallo-beta-lactamase (MBL) wild …; test: NMR 1H-15N HSQC titration; 750 uM enzyme, 0-4 eq 10-mer; range of fits for Lys78, Lys104, Lys107; 1 mM Zn2+ (NMR buffer); NMR: 20 mM MOPS, 1 mM ZnSO4, pH 7, 25 C (buffer stated for assignment sample; titration at 25 C); kinetic assay buffer not in the material
[3] = target: T1, 5/B/6 metallo-beta-lactamase (MBL) wild …; test: enzyme inhibition; cefuroxime substrate; NMR: 20 mM MOPS, 1 mM ZnSO4, pH 7, 25 C (buffer stated for assignment sample; titration at 25 C); kinetic assay buffer not in the material

B1: 10-mer DNA aptamer (structured_DNA)
DNA: CCAAACTTGG
For B1, the Ki [1] was 63 ± 3 nM, the Kd [2] was 153 nM and the IC50 [3] was 120 ± 5 nM.
